Results published in US20240299596A1, “METHODS AND MATERIALS FOR COMBINING BIOLOGICS WITH MULTIPLE CHELATORS” (priority 2021, published 2024).

What was measured:
[1] = Stability of ^64Cu-Conjugate 2 over time by HPLC; type: physicochemical
Procedure: The method used a Schmadzu HPLC system, which was equipped with dual UV and radioactivity detectors. […] Conjugate 2 was tested with varying concentrations (Table 18A below). […] For analysis, the compound was dissolved in water and a calibration curve was prepared to estimate the specific activity of the synthesized compound. Depending upon the chemical nature of the compound a different retention time was observed.
The stability of the ^64Cu-Conjugate 2 was tested using the same HPLC method as the Conjugate 2 at various time points. The time points included: 40 minutes (Tables 23-24 and FIG. 22), 2 hours (Tables 25-26 and FIG. 23), 4 hours (Tables 27-28 and FIG. 24), and 8 hours (Tables 29-30 and FIG. 25).

[2] = Micro PET imaging and ex-vivo biodistribution (SUV) in normal nude mice; design: species or system normal nude mice (strain: 002019, NU/J); details: mouse
Text: in accordance with Loening AM and Gambhir SS. […] Mol Imaging 2003; 2:131-7.

[3] = in vitro; type: in vitro ADME, mouse
Procedure: The stability of the ^64Cu-Conjugate 2 was tested in mouse serum and human serum at 37° C. using the Rad-iTLC method. Approximately 1.0 mL of mouse serum was extracted from blood of the mice and ˜1.0 mL of human serum was extracted from blood obtained from the Mayo Clinic's blood bank to measure the stability of radiolabeled ^64Cu-Conjugate 2. Obtained mouse and human serums were distributed separately in 100 μL aliquots in 1.5 mL microcentrifuge tubes (n=3). To which, 20 μL of ^64Cu-Conjugate2 was added in each 100 μL serum aliquot and mixed thoroughly. From this mixture, a small amount of reaction mixture was taken out using glass capillary tube and immediately spotted on an iTLC plate for analysis as T=0 timepoint (n=3). The rest of the reaction mixtures were incubated at 37° C. for up to 2 hours and small fractions were taken out at 1 hour and 2 hours post incubation to analyze the stability of ^64Cu-Conjugate 2 over time using radioactive thin layer chromatography (r-TLC). To do r-TLC analysis, iTLC (silica gel coated on paper, Agilent Technologies Inc., Santa Clara, CA) was used as a solid phase and 0.1M sodium citrate as a mobile phase. In this r-TLC condition, unconjugated (free)^64Cu moves to the solvent front of the r-TLC and radiolabeled ^64Cu-Conjugate 2 stays at the origin of the r-TLC plate. Based on the relative % of radioactivity at origin and at the solvent front, the % of intact ^64Cu-Conjugate2 and free ^64Cu was measured as presented in Tables 35 and 36.

[4] = Stability of ^64Cu-Conjugate 2 over time by TLC; type: physicochemical; details: silica gel, 0.1M sodium citrate
Procedure: The Conjugate-1 was radiolabeled with Cu-64 using [^64Cu]CuCl2 produced from cyclotron and formulated in 0.1M hydrochloric acid. Different amounts (50 μg, 100 μg) of Conjugate-1 were used and the pH was adjusted to 5.0 using 0.1M sodium acetate after addition of [^64Cu]CuCl2. The resultant reaction mixture was stirred at room temperature for different durations as 10 minutes, 20 minutes, 30 minutes, and 40 minutes to optimize radiolabeling yield with reaction time. The progress and yield of the reactions were monitored by radioactive thin layer chromatography (r-TLC) using iTLC (silica gel coated on paper, Agilent Technologies Inc., Santa Clara, CA) and 0.1M sodium citrate as a mobile phase. In this r-TLC condition, unconjugated (Free)^64Cu moves to the solvent front of the r-TLC and radiolabeled ^64Cu-Conjugate-1 stays at the origin of the r-TLC plate. Based on our tested radiolabeling condition, the reaction achieved >99% yield radiolabeling in 10 minutes and at all other time points at pH 5.0 using sodium acetate as a reaction buffer via stirring at room temperature. Formation of radiolabeled ^64Cu-Conjugate-1 was also confirmed by radio HPLC.
The TLC was performed with a silica gel solid phase and 0.1M sodium citrate mobile phase.
The stability of the ^64Cu-Conjugate 2 was also analyzed by TLC using the same TLC method as the ^64Cu-Conjugate 1 at various time points. The time points included: 40 minutes (Table 31 and FIG. 26), 2 hours (Table 32 and FIG. 27), 4 hours (Table 33 and FIG. 28), 8 hours (Table 34 and FIG. 29).

NC(=O)CN1CCN(CC(N)=O)CCN(CC(N)=O)C(Cc2ccc(NC(=S)NCCN(CCNC(=S)Nc3ccc(CC4CN(CC(=O)O)CCN(CC(=O)O)CCN4CC(=O)O)cc3)C(=O)Cc3ccc(NC(=S)NCCCC[C@H](NC(=O)N[C@@H](CCC(=O)O)C(=O)O)C(=O)O)cc3)cc2)CN(CC(N)=O)CC1 (some centres unmarked) [^64Cu-Conjugate 2, metal not drawn]
% Conc. of main HPLC peak ([1]; 40 minutes, Table 23 trace, peak at Ret. Time 9.335): 99.894%
% Conc. of main HPLC peak ([1]; 40 minutes, Table 24 trace, peak at Ret. Time 8.609): 98.297%
% Conc. of main HPLC peak ([1]; 2 hours, Table 25 trace, peak at Ret. Time 9.298): 99.770%
% Conc. of main HPLC peak ([1]; 2 hours, Table 26 trace, peak at Ret. Time 8.572): 98.718%
% Conc. of main HPLC peak ([1]; 4 hours, Table 27 trace, peak at Ret. Time 9.286): 99.463%
% Conc. of main HPLC peak ([1]; 4 hours, Table 28 trace, peak at Ret. Time 8.555): 98.453%
% Conc. of main HPLC peak ([1]; 8 hours, Table 29 trace, peak at Ret. Time 9.359): 99.107%
% Conc. of main HPLC peak ([1]; 8 hours, Table 30 trace, peak at Ret. Time 8.562): 98.173%
Site of accumulation in PET image [2]: accumulates in proximal tubules in the kidney
Intact (%), Average [3]: 98.26%
Stability in mouse serum (in words) [3]: stable up to 2 hours in mouse serum
remaining at 1 h ([3]; mouse, serum): 96.8%
remaining at 2 h ([3]; mouse, serum): 97.6%
% of ROI, Rgn 1 (origin, radiolabeled conjugate) ([4]; 40 minutes): 99.62%
% of ROI, Rgn 2 (solvent front, free ^64Cu) ([4]; 40 minutes): 0.38%
% of ROI, Rgn 1 (origin, radiolabeled conjugate) ([4]; 2 hours): 99.40%
% of ROI, Rgn 2 (solvent front, free ^64Cu) ([4]; 2 hours): 0.60%
% of ROI, Rgn 2 (solvent front, free ^64Cu) ([4]; 4 hours): 0.36%
% of ROI, Rgn 1 (origin, radiolabeled conjugate) ([4]; 8 hours): 99.19%
% of ROI, Rgn 2 (solvent front, free ^64Cu) ([4]; 8 hours): 0.81%
